From the nanobody polyreactivity screen of Harvey et al. (2022)

Experiment: yeast display, Sf9 membrane polyspecificity reagent, FACS + sequencing; frameworks hold sequencing errors
Outline: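 A synthetic nanobody library was expressed on Saccharomyces cerevisiae BJ5465 by galactose induction for 36–48 hours. The library was stained for 1 hour at 4 °C with 10% biotinylated, detergent-solubilized Sf9 membrane reagent and enriched with streptavidin microbeads before FACS. Low and high (top ~1%) gates were set on anti-HA fluorescence for expression and streptavidin fluorescence for reagent binding, and each polyreactivity label reflects the gate of origin.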

Row | Sequence | polyreactivity (PSR sort gate)
1 | QVQLVESGGGLVQAGGSLRLSGAASGFIFDQNAMGGYRQPPGKVRELVAAISKRGGSTYYADSVKGRFTISRDNAMNTVYLQMNSLKPEDTAVYYCARPRRSVNFYKYIYNYWGQGTLVTVSS | high polyreactivity
2 | QVQLVESGGGLVQAGGSLRLSCAASGSTFGRNAMGWYRQAPGKERELVAAISSGGRTYYADSVKGRFTISRDNAKNTVYLQMNSLKPEDTAVYYCARDDYGTLVKLYVRGFNYWGQGTQVTVSS | low polyreactivity
3 | QVQLVESGGGLVQSGGSLRLSCAASGGIFGINAMGWYRQAPGKEREFVAAITASGGTTYYADSVKGRFTISRDNAKNTVYLQMNRLKPEDTAVYYCAKRYRSYDYVWYEYWGQGTQVTVSS | high polyreactivity
4 | QVQLVESGGGLVQAGGSLRLSCAASGSIFVGYAMGWYRQAPGKERELVAAISSNGGSTYYADSVKGRFTISRDNAKNTVYLQMNSLKPEDTAVYYCAKDYTYSFGRSLDYWGQGTQVTVSS | low polyreactivity
5 | QVQHVESGGGLVQAGGSLRLSCAASVSIFSPNDMGCYRQAPGKERELVAAITSAGSTYYADSVKGRFTISRDNAKNSVYLQMNSLKPEDTAVYYCAASYISVTDYAYFPLWYGYWGQGTQVTVSS | low polyreactivity
6 | QVQLVESGGGLVQAGGSLRLSCAASGSTFDGYAMGWYRQAPAKERELVAAISRSGGRTYYADSVNGRFTISRDNAKITVYLQMNSLKPEDTAFYYCAAMYTYKREDYWGQGTQVTVSS | high polyreactivity
7 | QVQLVESGGGLVQAGGSLRLSCAASGFTFRNYAMGGYRQAPGKERELVAAISKSGGSTYYADSVKGRFTISRDNAKNTVYLQMNSLNPEDTAVYYCATDYLYVYGFEYYYWGQGTQVTVSS | high polyreactivity
8 | QVQLVESGGGLVQAGGSLRLSCAASGRIFYYYVMGWYRQAPGKERELVAAISSRGGCTYYADSVKGRFTISRDNAKNTVYLQMNSLKPEDTAVYYCAAEYGSISLRYPYYWRYDYWGQGTQVTVSS | high polyreactivity
9 | QVQLVVSGGGLVQAAGSLRLSCAASGLTFANYVMGWYRQAPGKERELVASISISGGSTYYADSEKGRFTISRDNAKNTVYLQMNSLKPEDTAVYYCAASFVSSYQYAYWGQVTQVTVSS | high polyreactivity
10 | QVQLVESGGGLVQAGGSLRLSCAASGITFYEYAMGWYRQAPGKEREFVAAIDDGDSSTYYADSVKGRFTISRDNGKNTVYLQMNTLKPEDSAVFDCNADPYYDYSLNWGDYWGQGTQVTVSS | low polyreactivity
11 | QVQLVESGGGLVQAGGSLRLSCAASGFTFRAYAMGWYRQAPGKERELVAAISTGGGSTYYADSVKGRFTISRDNEKNTVYLQMNSLKPEDTAVYYCNALPQRRYYYWGQGTQVTVSS | high polyreactivity
12 | QVQLVESGGGLVQAGGSLRLSCAASGSTFSPYAMGWYRQAPGKERELVAAIRRGGSTNYADSVKGRFTISRDNAKNTVYLQMNSLKPEDTAVYYCAATKRRFVKFDYWGQGTQVTVSS | low polyreactivity
13 | QVQLVESGGALDQAGGSLRLTCAASGFIFYFYAKGWYRQAPGKERELVAAIDSAGSTNYADSVKGRFTISRDNAKNTVYLQMNSLKPEDTAVYYCAREPDSYVSWRSRYNYWGQGTQVTVSS | low polyreactivity
14 | QDQLVESGGGLVQAGGSLRLSCAASGFTIERYAMGWYRQAPGKERELVAVISTSGGSTYYADSVKGRFTISRDNGKNTVYLLMNSLKPEDTAVYYCAAPSVSQYSSKKYDYWGQGTQVTVSS | low polyreactivity
15 | QVQLQESGGGLVQAGASLRLSCAASGSIYDDTYMGSYRQAPGKERELVATIDSGSTTNYADSVKGRITISRDNEKNTVYLQMNSLKPEDSAVYYCAAADSHIDYFDYWGQGTQVTVSS | low polyreactivity
16 | QVQLVESGGGLVQAGGSLRLSCAASGSTFSDNARGWYRQAPGKERELVAAIKETGGSTYYADSVKGRCTISRDNAKNTVYLQMNSLKPEDTAVYYCNADIDPYGATYAIEYDYWGQGTQVTVSS | low polyreactivity

Row | Sequence | polyreactivity (PSR sort gate)
17 | QVHLVESGGGLVQEGGSLRLSFAASGSSFIWYGMGWYRQAPGKARELVATITSSGSTNYADSVKGRFTISRDNAKNTVYLQMNSLKPEDTAVFYCAKRGPLRHYSWGQGTQVTVSS | low polyreactivity
18 | QVQLVESGGGLVQAGGSLRLSCAASGRTVPGYVMGWYRQARGKERELVAAITSGGSTNYADSVKGRFTISRDNAKNTVYLQMNSLKPEDTAVNYCNADRNRWPWSVFTSEYWGQGTQVTVSS | low polyreactivity
19 | QVQLVESGGGLVQAGGSLRLSCAASGRSFPAYAMGWYRQAPGKERELVAAISQSGGSTYYADSVKGRFTISRDNAKNTVYLQMNSLKPEDTAVYYCAAGWYVSYYWYDYWGQGTQVTVSS | high polyreactivity
20 | QVQLVESGGGLVQAGGSLRLSCAASGSIFEPNAMGWYRQAPGKVRELVAAITSGGTTYADSVKGRFTISRDNAKNTVYLQMNSLKPEETAVYYCAADYSFVYYYPFDYWGQGTQVTVSS | low polyreactivity
21 | QVQLVESGGGLVQAGGSLRLSCAASGSILRSNAMGWYIQAPGKERELVATITNSGGSTYSDSVKGSFTISRDNAKNTVYVQMNSLKPEVTAVYYCAKAGAGESIAKYDYWGQGTQVTVSS | low polyreactivity
22 | QVQLVESGGGLVQAGGSLRLSCAASGRIFGYYAMGWYRQAPGKERELVARIRRRGGSTYYADSVKGRFTISRDNAKNTVYLQMNSLKPEDTAVYYCAAVYYPLVGKRYYYWGQGTQVTVSS | high polyreactivity
23 | QVQLVESGGGLLQAGGSLRLSCAASGRTFRAYTMGWYRQAPGKERELVAAISTPGGSTYYADSVKGRFTISRDNAKNTVYLQMNSLKPEDSAVYYCAAGTFYYWLSYDYWGQGTQVTVSS | low polyreactivity
24 | QVQLVESGGGLVQAGGSLRLSCAASGRIFRAYVMGWYRQAPGKERELVATIDSGTSTYYADSVKGRFTISRDNAKNTVYLQMNSLKPEDTAVYYCAVPSHSRVPESFDYWGQGTQVTVSS | low polyreactivity
25 | QVQLVESGGGLVQAGGSLRLSCAASGIIFVSYMGWYRQAPGKERELVAAIRWSGGRTYYADAVKGRFTISRDNAKNTVYLQMNSLKPEDTAVYYCNKRVYYSRDVTSRVGRYDFWGQGTQVTVSS | high polyreactivity
26 | QVQLVESGGGLVQAGGSLRLSCAASGITFVVYTMGWYRQAPGKERELVASISISGDSTNYAESVKGRFTISRDNAKNTVYLQMNILKPEDTAVYYCNAAFYHVQFPWIAYEYWGQGTQVTVSP | low polyreactivity
27 | QVQLVESGGGLGQAGGSLRLSCAASGSTFYRNAMGWYRPAPGKERELVAAISGSDGSTYYADSVKGRFTISRDNAKNTVYLQMNSLKPEDTAVYYCVVAYARKYYYWGQGTQVTVSS | high polyreactivity
28 | QVQLVESGGGLVQAGGSLRLSCAASGRIFSRYAKGWYRQAPGKERELVAAINKSGGSTYYADSVKGRFTISRDNAKNTVYLQMNSLKPEDTAVYYCNAVYYWYKGDYWGQGTQVTVSS | high polyreactivity
29 | QVQLVESGGGLVQAGGSLRLSCAASGSIVAGYAMGWYRQAPGKEREMVAAISDSGGNTYYADSVKGRFTISRDNAKNTVYLQMNSLKPEDTAVYYCAADLGYGPLRELEYWGQGTQVTVSS | low polyreactivity
30 | QVQLVESGGGLVQAGGSLRLSCAASGSTFVYNAMGWYRQAPGKEREFVAVINWSGGRTYADSVKGRFTISRDNAKNTVYLQMNSLKPEDTAVYYCNARRRTGYRPAMDYWGQGTQVTVSS | high polyreactivity
31 | QVLLVESGGGLVQAGGSLRLSCAASGRTFRGNAMGWYRQAPGKERELVAAISRSGGTTYYADSVKGRFTISRYNAKNTVYLQMNSLKPEDTAVYYCNRGWATWHGPDDYWGQGTQVTVSS | high polyreactivity
32 | QVQLVESGGGLVQAGGSLRLSCAASGRTFIGYAMGWYRHAPGKERELVATISVSGGSTYYADSVKGRFTISRDNAKNTVYLQMKSLKPEDTAVYYCDKAYLRYYDGPYDYWGQGTQVTVSS | low polyreactivity
